For four molecules, pKd results are on record in article PMC9482650, “Quantitative fragmentomics allow affinity mapping of interactomes” (Nature Communications, 2022).

Changes are numbered by the printed parent chain.

The term pKd denotes the negative decadic logarithm of the Kd, by convention in mol/L.

Some targets named below: LIMK2, P53671; NHERF4_4, Q86UT5; LNX1_3, Q8TBB1; Inadl_3, Q8NI35; IL16_1, Q14005; FRMPD2_1, Q68DX3; NHERF4_2, Q86UT5; DLG4_2, P78352; LAP2, Q96RT1.
Assay in all cases: holdup assay
What all share (set-up): key: below the threshold = too weak to quantify, mostly under pKd 3.1 to 4

In another experiment the target is T1, APBA1_2, Q02410.
T1 sequence (Q02410 742-832, limits assumed, looked up): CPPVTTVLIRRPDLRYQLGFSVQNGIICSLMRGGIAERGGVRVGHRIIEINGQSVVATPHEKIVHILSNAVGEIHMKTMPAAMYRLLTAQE

The next experiment concerns the target T2, NHERF3_3, Q5T2W1.
T2 sequence (Q5T2W1 238-333, limits assumed, looked up): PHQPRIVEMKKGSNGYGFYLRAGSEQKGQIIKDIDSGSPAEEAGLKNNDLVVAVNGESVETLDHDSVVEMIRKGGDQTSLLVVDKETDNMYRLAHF

The target of the next experiment is T3, DFNB31_2, Q9P202.
T3 sequence (Q9P202 274-371, limits assumed, looked up): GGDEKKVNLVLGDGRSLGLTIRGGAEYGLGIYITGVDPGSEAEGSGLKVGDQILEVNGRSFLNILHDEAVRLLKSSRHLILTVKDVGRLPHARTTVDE

Another experiment addresses T4, PDZD2_2, O15018.
T4 sequence (O15018 329-429, limits assumed, looked up): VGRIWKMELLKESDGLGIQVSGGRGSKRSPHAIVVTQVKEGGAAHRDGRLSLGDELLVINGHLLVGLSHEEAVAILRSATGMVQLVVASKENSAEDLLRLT

A further experiment deals with T5, NHERF3_4, Q5T2W1.
T5 sequence (Q5T2W1 373-468, limits assumed, looked up): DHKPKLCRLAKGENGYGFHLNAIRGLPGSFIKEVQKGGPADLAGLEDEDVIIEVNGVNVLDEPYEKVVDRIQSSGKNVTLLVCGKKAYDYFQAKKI

The next experiment addresses T6, LNX2_3, Q8N448.
T6 sequence (Q8N448 463-564, limits assumed, looked up): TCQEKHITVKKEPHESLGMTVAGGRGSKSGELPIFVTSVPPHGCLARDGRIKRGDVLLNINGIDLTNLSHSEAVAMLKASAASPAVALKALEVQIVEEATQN

A further experiment addresses T7, SHANK1, Q9Y566.
T7 sequence (Q9Y566 658-767, limits assumed, looked up): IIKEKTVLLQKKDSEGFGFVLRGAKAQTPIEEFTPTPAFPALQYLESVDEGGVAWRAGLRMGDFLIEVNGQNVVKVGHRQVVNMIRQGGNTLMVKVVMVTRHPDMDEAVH

The target of the next experiment is T8, MPDZ_10, O75970.
T8 sequence (O75970 1624-1722, limits assumed, looked up): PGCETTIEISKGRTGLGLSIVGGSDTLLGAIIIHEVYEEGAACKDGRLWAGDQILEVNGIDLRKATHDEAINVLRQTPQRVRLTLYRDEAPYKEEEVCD

In another experiment the target is T9, TX1BP3, O14907.
T9 sequence (O14907 10-122, limits assumed, looked up): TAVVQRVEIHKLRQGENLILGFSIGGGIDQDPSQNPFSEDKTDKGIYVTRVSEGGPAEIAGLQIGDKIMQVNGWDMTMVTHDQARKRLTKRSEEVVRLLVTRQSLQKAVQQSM

Another experiment concerns the target T10, MPP6, Q9NZW5.
T10 sequence (Q9NZW5 125-219, limits assumed, looked up): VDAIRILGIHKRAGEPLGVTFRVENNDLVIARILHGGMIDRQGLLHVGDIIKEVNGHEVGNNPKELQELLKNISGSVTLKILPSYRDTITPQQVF

Another experiment concerns the target T11, MPP7, Q5T2T1.
T11 sequence (Q5T2T1 134-230, limits assumed, looked up): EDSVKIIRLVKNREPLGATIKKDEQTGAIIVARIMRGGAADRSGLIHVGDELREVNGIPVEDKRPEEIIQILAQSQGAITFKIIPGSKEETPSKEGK

The next experiment deals with T12, CARD11, Q9BXL7.
T12 sequence (Q9BXL7 662-765, limits assumed, looked up): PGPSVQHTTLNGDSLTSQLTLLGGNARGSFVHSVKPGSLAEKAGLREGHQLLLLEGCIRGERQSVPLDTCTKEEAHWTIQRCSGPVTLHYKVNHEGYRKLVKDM

In another experiment the target is T13, FRMPD1, Q5SYB0.
T13 sequence (Q5SYB0 52-145, limits assumed, looked up): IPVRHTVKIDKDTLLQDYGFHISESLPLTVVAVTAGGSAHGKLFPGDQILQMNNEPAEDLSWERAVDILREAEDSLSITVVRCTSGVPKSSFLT

In another experiment the target is T14, APBA2_2, Q99767.
T14 sequence (Q99767 654-744, limits assumed, looked up): T1 sequence (Q02410 742-832, limits assumed, looked up) with R10K, R15K, P59A, H65Q, I66A, A70S, Y84F, A89G

Where [1] appears, read: plain residues with an end cap or a label only (N-terminal biotin on a linker: ado-ado).
[2] abbreviates: plain residues with an end cap or a label only (N-terminal biotin on a linker: ttds).
The mark [3] stands for this setting: plain residues with an end cap or a label only (N-terminal biotin on a linker: ahx).

Sequence of IL16_1, Q14005 (Q14005 210-306): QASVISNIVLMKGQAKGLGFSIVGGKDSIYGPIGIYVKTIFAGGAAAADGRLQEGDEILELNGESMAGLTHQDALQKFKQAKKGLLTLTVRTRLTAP
Sequence of NHERF4_2, Q86UT5 (Q86UT5 220-308): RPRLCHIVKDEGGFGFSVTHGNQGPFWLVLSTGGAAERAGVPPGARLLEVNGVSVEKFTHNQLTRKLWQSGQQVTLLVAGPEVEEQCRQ
Sequence of LNX1_3, Q8TBB1 (Q8TBB1 500-596): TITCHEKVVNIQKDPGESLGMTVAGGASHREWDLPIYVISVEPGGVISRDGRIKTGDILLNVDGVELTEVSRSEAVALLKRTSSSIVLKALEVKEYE
Sequence of DLG4_2, P78352 (P78352 155-259): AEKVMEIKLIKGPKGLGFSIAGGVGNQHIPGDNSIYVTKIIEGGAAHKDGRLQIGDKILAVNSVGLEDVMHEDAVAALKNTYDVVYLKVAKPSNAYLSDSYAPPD
Sequence of FRMPD2_1, Q68DX3 (Q68DX3 770-861): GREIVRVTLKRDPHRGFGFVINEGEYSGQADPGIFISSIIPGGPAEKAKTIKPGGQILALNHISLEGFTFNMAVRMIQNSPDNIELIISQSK
Sequence of LIMK2, P53671 (P53671 143-248): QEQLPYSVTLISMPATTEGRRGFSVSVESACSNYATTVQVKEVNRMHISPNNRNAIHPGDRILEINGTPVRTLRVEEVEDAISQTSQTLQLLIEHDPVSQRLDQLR
Sequence of NHERF4_4, Q86UT5 (Q86UT5 464-550): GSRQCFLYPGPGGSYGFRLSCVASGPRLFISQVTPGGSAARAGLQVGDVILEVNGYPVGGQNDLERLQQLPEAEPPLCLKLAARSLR
Sequence of LAP2, Q96RT1 (Q96RT1 other isoform, or with tags, fused parts or gaps): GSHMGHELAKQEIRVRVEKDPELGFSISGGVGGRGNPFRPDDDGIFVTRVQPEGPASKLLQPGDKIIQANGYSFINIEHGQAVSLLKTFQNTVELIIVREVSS
Sequence of Inadl_3, Q8NI35 (Q8NI35 359-469): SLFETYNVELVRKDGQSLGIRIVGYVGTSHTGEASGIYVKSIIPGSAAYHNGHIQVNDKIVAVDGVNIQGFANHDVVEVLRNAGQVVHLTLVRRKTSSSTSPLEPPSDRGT

For the molecule QKNKDKEYYV [NRXN3_rs746444206, Q9Y4C0], the pKd result with LIMK2, P53671 (setting [1]) was “below the threshold”; with APBA1_2, Q02410 (setting [1]), 4.02; with NHERF4_4, Q86UT5 (setting [1]), “below the threshold”; with NHERF3_3, Q5T2W1 (setting [1]), “below the threshold”; with LNX1_3, Q8TBB1 (setting [1]) it was 3.99; with DFNB31_2, Q9P202 (setting [1]), “below the threshold”. For the same molecule, the pKd is 4.5 with PDZD2_2, O15018 (setting [1]); 4 with Inadl_3, Q8NI35 (setting [1]); “below the threshold” with IL16_1, Q14005 (setting [1]); “below the threshold” in the experiment with NHERF3_4, Q5T2W1 (setting [1]); “below the threshold” with LNX2_3, Q8N448 (setting [1]); 3.69 with FRMPD2_1, Q68DX3 (setting [1]). Further, the pKd entry with NHERF4_2, Q86UT5 (setting [1]) is “below the threshold”; with SHANK1, Q9Y566 (setting [1]), “below the threshold”; with MPDZ_10, O75970 (setting [1]), “below the threshold”; with TX1BP3, O14907 (setting [1]), “below the threshold”; in the experiment with DLG4_2, P78352 (setting [1]) it was 3.56; in the experiment with MPP6, Q9NZW5 (setting [1]) it was 4.43. Further, the negative logarithm of the Kd (pKd) result is “below the threshold” with LAP2, Q96RT1 (setting [1]); 4.79 with MPP7, Q5T2T1 (setting [1]); “below the threshold” with CARD11, Q9BXL7 (setting [1]); “below the threshold” with FRMPD1, Q5SYB0 (setting [1]); “below the threshold” in the experiment with APBA2_2, Q99767 (setting [1]).

For the molecule DPLTPSRSQL [DGKK, Q5KSL6], the negative logarithm of the Kd (pKd) entry in the experiment with LIMK2, P53671 (setting [2]) is “below the threshold”; with APBA1_2, Q02410 (setting [2]), 3.71; with NHERF4_4, Q86UT5 (setting [2]) it was “below the threshold”; with NHERF3_3, Q5T2W1 (setting [2]) it was “below the threshold”; with LNX1_3, Q8TBB1 (setting [2]) it was “below the threshold”; with DFNB31_2, Q9P202 (setting [2]) it was “below the threshold”. Moreover, the pKd entry in the experiment with PDZD2_2, O15018 (setting [2]) is “below the threshold”; in the experiment with Inadl_3, Q8NI35 (setting [2]), “below the threshold”; with IL16_1, Q14005 (setting [2]), “below the threshold”; with NHERF3_4, Q5T2W1 (setting [2]), “below the threshold”; in the experiment with LNX2_3, Q8N448 (setting [2]), “below the threshold”; with FRMPD2_1, Q68DX3 (setting [2]), “below the threshold”. The pKd entry was “below the threshold” with NHERF4_2, Q86UT5 (setting [2]); 4.11 with SHANK1, Q9Y566 (setting [2]); “below the threshold” with MPDZ_10, O75970 (setting [2]); “below the threshold” with TX1BP3, O14907 (setting [2]); “below the threshold” in the experiment with DLG4_2, P78352 (setting [2]); “below the threshold” in the experiment with MPP6, Q9NZW5 (setting [2]). Besides, the negative-log Kd (pKd) entry was “below the threshold” in the experiment with LAP2, Q96RT1 (setting [2]); “below the threshold” with MPP7, Q5T2T1 (setting [2]); “below the threshold” with CARD11, Q9BXL7 (setting [2]); 3.73 with FRMPD1, Q5SYB0 (setting [2]); “below the threshold” with APBA2_2, Q99767 (setting [2]).

With HSGSYLVTSV [APC, P25054], the negative logarithm of the Kd (pKd) entry in the experiment with LIMK2, P53671 (setting [3]) was “below the threshold”; with APBA1_2, Q02410 (setting [3]) it was 4.03; with NHERF4_4, Q86UT5 (setting [3]), “below the threshold”; with NHERF3_3, Q5T2W1 (setting [3]), “below the threshold”; with LNX1_3, Q8TBB1 (setting [3]), “below the threshold”; with DFNB31_2, Q9P202 (setting [3]) it was “below the threshold”. For the same molecule, the pKd in the experiment with PDZD2_2, O15018 (setting [3]) was 4.43; with Inadl_3, Q8NI35 (setting [3]) it was “below the threshold”; in the experiment with IL16_1, Q14005 (setting [3]), 3.58; with NHERF3_4, Q5T2W1 (setting [3]) it was “below the threshold”; with LNX2_3, Q8N448 (setting [3]), “below the threshold”; with FRMPD2_1, Q68DX3 (setting [3]), “below the threshold”. Also, the pKd entry in the experiment with NHERF4_2, Q86UT5 (setting [3]) is “below the threshold”; with SHANK1, Q9Y566 (setting [3]), 4.1; in the experiment with MPDZ_10, O75970 (setting [3]), 4.06; with TX1BP3, O14907 (setting [3]), 5.53; with DLG4_2, P78352 (setting [3]), 4.98; with MPP6, Q9NZW5 (setting [3]) it was “below the threshold”. In addition, the negative logarithm of the Kd (pKd) is 4.87 in the experiment with LAP2, Q96RT1 (setting [3]); “below the threshold” with MPP7, Q5T2T1 (setting [3]); “below the threshold” with CARD11, Q9BXL7 (setting [3]); “below the threshold” with FRMPD1, Q5SYB0 (setting [3]); “below the threshold” with APBA2_2, Q99767 (setting [3]).

As to RNCSTNDSLL [ADRB2, P07550], the pKd result with LIMK2, P53671 (setting [3]) is “below the threshold”; in the experiment with APBA1_2, Q02410 (setting [3]) it was “below the threshold”; with NHERF4_4, Q86UT5 (setting [3]), “below the threshold”; with NHERF3_3, Q5T2W1 (setting [3]), “below the threshold”; with LNX1_3, Q8TBB1 (setting [3]) it was “below the threshold”; with DFNB31_2, Q9P202 (setting [3]), “below the threshold”. Besides, the pKd result with PDZD2_2, O15018 (setting [3]) was “below the threshold”; with Inadl_3, Q8NI35 (setting [3]) it was 3.73; with IL16_1, Q14005 (setting [3]), “below the threshold”; in the experiment with NHERF3_4, Q5T2W1 (setting [3]), 3.54; with LNX2_3, Q8N448 (setting [3]), “below the threshold”; in the experiment with FRMPD2_1, Q68DX3 (setting [3]) it was “below the threshold”. Also, the pKd result with NHERF4_2, Q86UT5 (setting [3]) was “below the threshold”; with SHANK1, Q9Y566 (setting [3]) it was “below the threshold”; with MPDZ_10, O75970 (setting [3]), 3.69; with TX1BP3, O14907 (setting [3]), 3.49; with DLG4_2, P78352 (setting [3]), “below the threshold”; with MPP6, Q9NZW5 (setting [3]), “below the threshold”. Moreover, the pKd result is given as “below the threshold” with LAP2, Q96RT1 (setting [3]); “below the threshold” with MPP7, Q5T2T1 (setting [3]); “below the threshold” with CARD11, Q9BXL7 (setting [3]); “below the threshold” with FRMPD1, Q5SYB0 (setting [3]); “below the threshold” with APBA2_2, Q99767 (setting [3]).
